This passage reports Kd results from US20230183291A1 (Bicycle, published 2023).

Numbered stars: 1 amine (or outer) side, 2 acyl side, 3 side chain; on linkers, the order of the positions; unused ones are H or OH. Bridge positions count the residues as written; N and C are the ends. Square brackets hold non-standard residues; d marks the D form. Ends that are not written are not given here. Hse(Me) = O-methyl-homoserine, COCC[C@H](N[*:1])C(=O)[*:2]; TATA = O=C(CC[*:1])N1CN(C(=O)CC[*:2])CN(C(=O)CC[*:3])C1; Phe(3-Cl) = N[C@@H](Cc1cccc(Cl)c1)C(=O)O; Phe(2-Cl) = N[C@@H](Cc1ccccc1Cl)C(=O)O; Phe(3-F) = N[C@@H](Cc1cccc(F)c1)C(=O)O; Phe(3-Me) = Cc1cccc(C[C@H](N)C(=O)O)c1; Phe(4-Me) = Cc1ccc(C[C@H](N)C(=O)O)cc1; Phe(2-F) = N[C@@H](Cc1ccccc1F)C(=O)O; Phe(2-Me) = Cc1ccccc1C[C@H](N)C(=O)O; Hyp = O=C(O)[C@@H]1C[C@@H](O)CN1; hArg = N=C(N)NCCCC[C@H](N)C(=O)O; tBuAla = CC(C)(C)C[C@H](N)C(=O)O; Agb = N=C(N)NCC[C@H](N)C(=O)O; PYA = propargyl-acid

In assay [1] the target is T1, Biotinylated Human ACE2, His, Avitag protein (ACROBiosystems, AC2-H82E6) (human, UniProt Q9BYF1 18-740).
T1 construct: also called biotinylated ACE2; ACE2 protein; not shown: His tag and Avitag
T1 sequence (Q9BYF1 18-740 limits assumed): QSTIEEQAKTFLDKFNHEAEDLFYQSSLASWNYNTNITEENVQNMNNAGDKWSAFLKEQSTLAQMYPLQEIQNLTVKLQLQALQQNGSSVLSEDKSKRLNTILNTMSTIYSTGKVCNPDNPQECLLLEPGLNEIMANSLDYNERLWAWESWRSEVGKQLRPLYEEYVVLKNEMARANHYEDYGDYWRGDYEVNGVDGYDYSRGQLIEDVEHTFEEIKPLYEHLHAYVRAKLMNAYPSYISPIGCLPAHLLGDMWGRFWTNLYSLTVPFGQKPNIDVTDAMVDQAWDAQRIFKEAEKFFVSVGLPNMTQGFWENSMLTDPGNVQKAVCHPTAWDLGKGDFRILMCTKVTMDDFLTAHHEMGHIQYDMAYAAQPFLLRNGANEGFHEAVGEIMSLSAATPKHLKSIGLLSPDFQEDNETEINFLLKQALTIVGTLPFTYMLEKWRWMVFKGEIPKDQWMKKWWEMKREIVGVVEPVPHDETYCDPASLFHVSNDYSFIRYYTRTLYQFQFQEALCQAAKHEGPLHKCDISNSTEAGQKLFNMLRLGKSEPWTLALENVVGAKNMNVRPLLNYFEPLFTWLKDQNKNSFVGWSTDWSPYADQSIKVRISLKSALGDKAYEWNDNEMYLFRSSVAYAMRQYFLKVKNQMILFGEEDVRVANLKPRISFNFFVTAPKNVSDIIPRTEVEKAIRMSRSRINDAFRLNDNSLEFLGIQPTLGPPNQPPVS
In words: SPR single cycle kinetics, ACE2 captured on CAP chip, peptide analyte; geometric mean. On the procedure: (§1) Binding of bicyclic peptides of the invention to Biotinylated Human ACE2, His, Avitag™ protein (ACROBiosystems, AC2-H82E6) was assessed by a SCK analysis. Experiments were performed at 25° C. on a Biacore T200 (Cytiva) running Biacore T200 Control software V2.0.1 and Evaluation software V3.0 (Cytiva). HBS-EP+ (Cytiva) was used as running buffer as well as for ligand and analyte dilutions. Biotin CAPture reagent was loaded onto a Series S Sensor CAP Chip (Cytiva) followed by loading of the ACE2 protein at a flow rate of 2 μl/min. The surface was then allowed to stabilise.
(§2) SCK data was obtained using bicyclic peptides of the invention as analytes injected at a flow rate of 30 μl/min to minimise any potential mass transfer effects. […] The association phases were monitored for 100 seconds for each of the four injections of increasing concentrations of analyte and a single dissociation phase was measured for 400 seconds following the last injection of analyte. Regeneration of the sensor chip surface was conducted using the CAP Chip standard regeneration buffer (Cytiva).
(§3) The signal from the reference channel Fc1 (no ACE2 captured) was subtracted from that of Fc2, Fc3 and Fc4 to correct for bulk effect and differences in non-specific binding to a reference surface. The signal from each blank run (Fc2-ACE2 captured but no antigen) was subtracted to correct for differences in surface stability. The double referenced sensorgrams were fitted with the Langmuir (1:1) binding model (Equation 1a below) where the closeness of fit of the data to the model is evaluated using the Chi square value which describes the deviation between the experimental and fitted (observed and expected) curves (Equation 1b below).

The target in assay [2] is T1, Biotinylated Human ACE2, His, Avitag …. In words: SPR multiple cycle kinetics, ACE2 captured on CAP chip, peptide analyte 6.25-100 nM; geometric mean. On the procedure:
Binding of bicyclic peptides of the invention to Biotinylated Human ACE2, His, Avitag™ protein (ACROBiosystems, AC2-H82E6) was assessed by a MCK analysis. Experiments were performed at 25° C. on a Biacore T200 (Cytiva) running Biacore T200 Control software V2.0.1 and Evaluation software V3.0 (Cytiva). HBS-EP+(Cytiva) was used as running buffer as well as for ligand and analyte dilutions. Biotin CAPture reagent was loaded onto a Series S Sensor CAP Chip (Cytiva) followed by loading of biotinylated ACE2 at a flow rate of 2 μl/min. The surface was then allowed to stabilise.
MCK data was obtained using bicyclic peptides of the invention as analytes injected at a flow rate of 30 μl/min to minimise any potential mass transfer effects. A five point, two-fold dilution range from 6.25 nM to 100 nM of analyte was prepared in running buffer. For each concentration, the association phases were monitored for 250 seconds and the dissociation phase was measured for 450 seconds. Regeneration of the sensor chip surface was conducted between cycles using the CAP Chip standard regeneration buffer (Cytiva). Multiple repeats of a blank and of Bicycle were programmed into the kinetic run in order to check the stability of both the surface and analyte over the kinetic cycles.
as §3, with “above)” for “below)”, “1 b above).” for “1b below).”

Assay [3] shares this target. Briefly: SPR single cycle kinetics, ACE2 captured on CAP chip, peptide analyte; geometric mean; * Rmax set to 10. On the procedure:
as §1, §2, §3

A word on the Kd: it is the free concentration of one partner at which half of the binding sites on the other are occupied at equilibrium, for simple one-to-one binding. A high value points to weaker binding.

B1: BCY17688 (peptide)
peptide: CNAVLCSWARANSFC
modifications: linker 1-6-15 via TATA
notes: bicyclic peptide without terminal additions
In assay [1], B1 yielded a Kd of 2.7 nM.

B2: BCY17158 (peptide)
peptide: ACNQVLCRWAQVNSMCA
modifications: linker 2-7-16 via TATA
notes: bicyclic peptide, TATA scaffold
Turning to B2, the Kd in assay [1] was 4 nM; in assay [2] it was 8.1 nM.

B3: BCY17161 (peptide)
peptide: ACNTVLCAWARANSYCA
modifications: linker 2-7-16 via TATA
notes: as for B2
Consider B3, for which the Kd in assay [1] is 4.2 nM; in assay [2], 4.4 nM.

B4: BCY17160 (peptide)
peptide: ACNTVLCNWARYNSLCA
modifications: linker 2-7-16 via TATA
notes: as for B2
As for B4, the Kd in assay [1] worked out at 4.2 nM; in assay [2] it was 4.8 nM.

B5: BCY17689 (peptide)
peptide: ACNAVLCSWA[Agb]ANSFCA
modifications: linker 2-7-16 via TATA
notes: as for B2
For B5, in assay [1], binding was put at a Kd of 4.7 nM.

B6: BCY15427 (peptide)
peptide: ACPSQYKCWRGKCA
modifications: linker 2-8-13 via TATA
notes: as for B2
For B6, in assay [1], the Kd came to 150 nM.

B7: BCY17338 (peptide)
peptide: ACNAVLCSWARANS[Phe(2-Cl)]CA
modifications: linker 2-7-16 via TATA
notes: as for B2
Molecule B7 gave a Kd in assay [1] of 3.2 nM. This Kd lies about 47-fold lower than the previous one.

B8: BCY17156 (peptide)
peptide: ACTELYKCWRGRCA
modifications: linker 2-8-13 via TATA
notes: as for B2
In assay [1], B8 yielded a dissociation constant (Kd) of 151 nM.

B9: BCY17155 (peptide)
peptide: ACNTLYKCWRGKCA
modifications: linker 2-8-13 via TATA
notes: as for B2
For B9, binding in assay [1] was characterised by a dissociation constant (Kd) of 107 nM. This Kd and that of the molecule before are within 1.5-fold of each other.

B10: BCY17337 (peptide)
peptide: ACNAVLCSWARANS[Phe(4-Me)]CA
modifications: linker 2-7-16 via TATA
notes: as for B2
Take B10: the Kd in assay [1] is 5 nM.

B11: BCY17341 (peptide)
peptide: ACNAVLCSWARANS[Phe(2-F)]CA
modifications: linker 2-7-16 via TATA
notes: as for B2
In assay [1], B11 yielded a Kd of 3.1 nM. Against the preceding molecule, the Kd is about 1.6-fold lower.

B12: BCY18210 (peptide)
peptide: Ac-CN[Hyp]VLCSWA[hArg]ANSFC
modifications: linker 1-6-15 via TATA
notes: as for B2
B12: the results for the Kd in assay [3] and in assay [2] were 21.1 nM and 10.6 nM, respectively.

B13: BCY15429 (peptide)
peptide: ACNAVLCSWARANSFCA
modifications: linker 2-7-16 via TATA
notes: as for B2
For B13, the figures for the Kd in assay [1] and in assay [2] were 3.4 nM and 4 nM, respectively.

B14: BCY17690 (peptide)
peptide: ACNAVLCSWARANSYCA
modifications: linker 2-7-16 via TATA
notes: as for B2
Consider B14, for which, in assay [1], the affinity, expressed as Kd, was 4.8 nM.

B15: BCY17165 (peptide)
peptide: ACSPVLCAWATRNSLCA
modifications: linker 2-7-16 via TATA
notes: as for B2
As for B15, in assay [1], binding was put at a Kd of 12.5 nM.

B16: BCY17159 (peptide)
peptide: ACNRVLCAWATANSMCA
modifications: linker 2-7-16 via TATA
notes: as for B2
B16: the affinity in assay [1], expressed as Kd, was 4.7 nM.

B17: BCY18784 (peptide)
peptide: Ac-CNAVLCSWA[hArg]ANSFCK(PYA)
modifications: linker 1-6-15 via TATA
notes: as for B2
Molecule B17 had a Kd in assay [1] of 25.3 nM.

B18: BCY17154 (peptide)
peptide: ACESLYKCWRGRCA
modifications: linker 2-8-13 via TATA
notes: as for B2
B18 returned a Kd in assay [1] of 104 nM.

B19: BCY18349 (peptide)
peptide: Ac-CNRVLCAWATANS[Hse(Me)]CK(PYA)
modifications: linker 1-6-15 via TATA
notes: as for B2
As to B19, the Kd in assay [3] is 59.6 nM.

B20: BCY17339 (peptide)
peptide: ACNAVLCSWARANS[Phe(3-Cl)]CA
modifications: linker 2-7-16 via TATA
notes: as for B2
As to B20, the Kd in assay [1] worked out at 4.7 nM.

B21: BCY17164 (peptide)
peptide: ACNTVLCAWATQNSLCA
modifications: linker 2-7-16 via TATA
notes: as for B2
In assay [1], B21 came in with a Kd of 14.8 nM.

B22: BCY17157 (peptide)
peptide: ACNKVLCSWASRNSMCA
modifications: linker 2-7-16 via TATA
notes: as for B2
For the molecule B22, binding in assay [1] was characterised by a dissociation constant (Kd) of 11.8 nM.

B23: BCY17333 (peptide)
peptide: ACNAV[tBuAla]CSWARANSFCA
modifications: linker 2-7-16 via TATA
notes: as for B2
The molecule B23 registered a Kd in assay [1] of 5 nM. Compared with the last molecule, the Kd is about 2.4-fold lower.

B24: BCY17152 (peptide)
peptide: ACAEIYKCWRGRCA
modifications: linker 2-8-13 via TATA
notes: as for B2
B24 displayed a Kd in assay [1] of 120 nM. This Kd lies about 24-fold higher than the previous one.

B25: BCY17336 (peptide)
peptide: ACNAVLCSWARANS[Phe(3-Me)]CA
modifications: linker 2-7-16 via TATA
notes: as for B2
As to B25, the Kd in assay [1] amounted to 8.3 nM.

B26: BCY17162 (peptide)
peptide: ACNTVLCGWARANSLCA
modifications: linker 2-7-16 via TATA
notes: as for B2
B26: the Kd in assay [1] was determined as 5.7 nM; in assay [2] it was 11.4 nM.

B27: BCY17342 (peptide)
peptide: ACNAVLCSWARANS[Phe(3-F)]CA
modifications: linker 2-7-16 via TATA
notes: as for B2
In the case of B27, in assay [1], the Kd was determined as 3.3 nM. In other words, the single-digit nanomolar range.

B28: BCY18657 (peptide)
peptide: Ac-CNTVLCSWA[hArg]ANSFC
modifications: linker 1-6-15 via TATA
notes: as for B2
On to B28, for which the Kd in assay [1] was 69.3 nM.

B29: BCY19025 (peptide)
peptide: Ac-CNAVLCSWA[hArg]TNSFC
modifications: linker 1-6-15 via TATA
notes: as for B2
The molecule B29 displayed a Kd in assay [2] of 70.7 nM. That is a double-digit nanomolar value.

B30: BCY19026 (peptide)
peptide: Ac-CNAVLCSWA[hArg]SNSFC
modifications: linker 1-6-15 via TATA
notes: as for B2
In assay [2], B30 showed a Kd of 45.2 nM.

B31: BCY18658 (peptide)
peptide: Ac-CNSVLCSWA[hArg]ANSFC
modifications: linker 1-6-15 via TATA
notes: as for B2
For B31, the Kd in assay [1] is 6.7 nM; in assay [2], 13.5 nM.

B32: BCY17163 (peptide)
peptide: ACNTVLCAWAMNNSMCA
modifications: linker 2-7-16 via TATA
notes: as for B2
Consider B32, for which the Kd in assay [1] stood at 36.8 nM.

B33: BCY17691 (peptide)
peptide: Ac-ACNAVLCSWARANSFCA
modifications: linker 2-7-16 via TATA
notes: as for B2
In assay [1], B33 showed an equilibrium dissociation constant (Kd) of 3.9 nM.

B34: BCY18350 (peptide)
peptide: Ac-CN[hArg]VLCSWA[hArg]ANSFC
modifications: linker 1-6-15 via TATA
notes: as for B2
B34: the affinity in assay [1], expressed as Kd, was 8.3 nM.

B35: BCY17153 (peptide)
peptide: ACDTLYKCWRGRCA
modifications: linker 2-8-13 via TATA
notes: as for B2
For B35, in assay [1], binding was characterised by a dissociation constant (Kd) of 91.7 nM. Compared with the last molecule, the Kd is about 11-fold higher.

B36: BCY17663 (peptide)
peptide: Ac-CNAVLCSWARANSFC
modifications: linker 1-6-15 via TATA
notes: as for B2
As to B36, in assay [1], the Kd came to 5.3 nM. Compared with the last molecule, the Kd is about 17-fold lower.

B37: BCY17335 (peptide)
peptide: ACNAVLCSWARANS[Phe(2-Me)]CA
modifications: linker 2-7-16 via TATA
notes: as for B2
In turn, B37 had a Kd in assay [1] of 2.5 nM.
